Test results published in US20260109745A1 (published 2026).
Ends that are not written are not given here.

Biological target: T1, NEO-101 antibody (chimeric NPC-1 antibody)
T1 construct: Chimeric (murine variable, human constant regions); Used unlabelled, biotinylated, FITC-labelled or coupled to Dynal beads depending on the assay; also called NPC-1C; NPC-1-C
Experiment: ELISA: peptide-biotin on NEO-101 coated plate
Protocol: To solve the poor binding of peptides to 96 well plate, peptides were biotinylated using EZ-link micro NHS Biotinylation kit (Pierce Cat #21955), and labeling efficiency checked by dot blot (50%). […] The solution was blocked with 200 μl of 1% milk in TBS at RT for 20 min. Aliquots of 100 μl peptide-biotin (1 μg/ml) in 0.1% milk-TBS were added, and incubated at RT of 2 hr, followed by three washes with TBST. Streptavidin-HRP (100 μl of 1:2000 diluted in 1:10 diluted blocking buffer) was added, and the wells incubated at RT for 1 hr, followed by three washed. TMB was then added, and the wells were read at 450 nm. Positive controls for NPC-1C binding used 4B6-biotin. The results are shown in FIG. 11, which indicates biotinylated peptides bind to NPC-1C coated plate.

T1 sequence (VH, as listed by the source limits assumed, chain 1 of 2): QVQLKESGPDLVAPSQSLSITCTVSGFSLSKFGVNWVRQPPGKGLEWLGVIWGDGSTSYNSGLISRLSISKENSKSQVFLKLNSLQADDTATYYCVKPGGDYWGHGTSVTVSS
T1 sequence (VL, as listed by the source limits assumed, chain 2 of 2): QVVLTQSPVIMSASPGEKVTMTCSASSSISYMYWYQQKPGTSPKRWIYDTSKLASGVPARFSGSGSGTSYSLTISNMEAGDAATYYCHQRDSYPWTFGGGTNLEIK

YSHSVHAIEDNWSPRGGGGS (also: biotinylated (NHS kit) in direct ELISA, unlabelled in competition assays, Negative control peptide) [synthetic peptide 4-1-3-C11 (control peptide)]
binding result: no binding (tested: 1 ug/ml)
